Patent US20100004429A1 (Kyowa Kirin, published 2010)
Changes are numbered by the printed parent chain.

T1: human thrombopoietin receptor (human c-Mpl) (human, UniProt P40238 26-635)
T1 sequence (looked up): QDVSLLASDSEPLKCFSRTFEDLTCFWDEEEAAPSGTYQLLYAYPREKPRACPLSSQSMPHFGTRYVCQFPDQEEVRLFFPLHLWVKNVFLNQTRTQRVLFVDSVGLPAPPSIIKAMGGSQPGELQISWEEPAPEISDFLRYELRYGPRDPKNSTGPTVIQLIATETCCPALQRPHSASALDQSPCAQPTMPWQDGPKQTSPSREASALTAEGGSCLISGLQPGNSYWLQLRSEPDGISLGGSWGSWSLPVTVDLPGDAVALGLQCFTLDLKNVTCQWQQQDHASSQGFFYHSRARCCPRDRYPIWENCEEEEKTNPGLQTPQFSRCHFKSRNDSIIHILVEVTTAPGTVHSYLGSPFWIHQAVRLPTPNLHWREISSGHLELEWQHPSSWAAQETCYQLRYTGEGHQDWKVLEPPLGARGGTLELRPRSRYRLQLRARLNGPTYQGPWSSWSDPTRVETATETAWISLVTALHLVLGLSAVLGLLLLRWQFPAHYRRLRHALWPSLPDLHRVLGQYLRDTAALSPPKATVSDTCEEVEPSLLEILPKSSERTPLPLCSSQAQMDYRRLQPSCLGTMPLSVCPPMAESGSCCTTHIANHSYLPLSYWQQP

B1: anti-human c-Mpl agonist antibody 6-5-2 (IgG1) (antibody, V domains shown)
VH: EVQLVECGGGLVQPGRSLRLSCAASGFTFDDYAMHWVRQAPGKGLEWVSGISWNSGSIGYADSVKGRFTISRDNAKNSLYLQMNSLRAEDTALYYCAKPIWFGEWGNYYGMDVWGQGTTVTVSS
VL: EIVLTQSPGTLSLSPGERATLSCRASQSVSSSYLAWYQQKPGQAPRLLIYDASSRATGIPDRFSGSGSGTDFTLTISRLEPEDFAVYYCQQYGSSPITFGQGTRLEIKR
B2: anti-human c-Mpl agonist antibody 7-10 (IgG1) (antibody, V domains shown)
VH: EVQLVESGGGLVQPGRSLRLSCAASGFTFDDYAMHWVRQAPGKGLEWVSGISWNSGSIGYADSVKGRFTISRDNAKNSLYLQMNSLRAEDTALYYCAKNLWFGEFRYWYFDLWGRGTLVTVSS
VL: AIQLTQSPSSLSASVGDRVTITCRASQGISSALAWYQQKPGKAPKLLIYDASSLESGVPSRFSGSGSGTDFTLTISSLQPEDFATYYCQQFNSYPLTFGGGTKVEIK
B3: 7-10G4344uhm light chain mutant 7-10VL_A43V (antibody, V domains shown)
VH: B2 VH
VL: B2 VL with A43V
notes: Mutant light chain combined with the heavy chain of 7-10G4344uhm; human kappa constant region; also called 6-4-50VL substitution product 2
B4: 7-10G4344uhm light chain mutant 7-10VL_Y94F (antibody, V domains shown)
VH: B2 VH
VL: B2 VL with Y94F
notes: Human kappa constant region; also called CDR substitution product
B5: anti-human c-Mpl agonist antibody 4-49 (IgG1) (antibody, V domains shown)
VH: EEQLVESGGGLVQPGRSLRLSCTASGFTFDDYAMYWVRQVPGKGLEWVSGISWNSGSIGYADSVKGRFTVSRDNAKNSLYLQMNSLRAEDTALYYCAKALWFGEFPHYYGMDVWGQGTTVTVSS
VL: AIQLTQSPSSLSASVGDRVTITCRASQGISSTLAWYQQKPGKAPKLLIYDASSLESGVPSRFSGSGSGTDFTLTISSLQPEDFATYYCQQFNSYPYTFGQGTKLEIKR
B6: anti-human c-Mpl agonist antibody 6-4-50 (IgG1) (antibody, V domains shown)
VH: EVQLVESGGGLVQPGRSLRLSCATSGFTFDNYAMYWVRQAPGKGLEWVSGISWNSGDIGYADSVKGRFTISRDNAKNSLYLQMNSLRAEDTALYYCARDAGFGEFHYGLDVWGQGTTVTVSS
VL: B5 VL with T32A, A43V, Y96W, L104V

Columns and labels:
[1] = target: T1, human thrombopoietin receptor (human …); experiment: cell-based or functional assay
[2] = target: T1, human thrombopoietin receptor (human …); experiment: flow cytometry on FM3A-hMpl cells
Protocol: The binding activity of the anti-human c-Mpl antibodies was assayed by flow cytometry using the hybridoma culture supernatants or purified antibodies in the following manner. The FM3A-hMpl cells or human Mpl expressing FDCP2 cells (FDCP-hMpl) (FEBS, Lett., Oct. 21, 1996, 395 (2-3): 228-34) were used.
Cells (4×10⁵ cells) were suspended in 50 μl of FACS staining medium (2% FBS, 0.1% NaN₃, 1 mM EDTA in PBS) per reaction, 50 μl of the hybridoma culture supernatant or purified human antibody solution (final concentration: 0.1-1 μg/ml) was added, and the reaction was carried out on ice for 30 minutes. After the washing with FACS staining medium, a secondary antibody, the R-phycoerythrin (RPE) labeled goat anti-human Igγ F(ab′) antibody (Cat#2043-09, Southern Biotechnology), was added, and the reaction was carried out again on ice under the light-shielded conditions for 30 minutes, followed by washing again. The cells were suspended in a propidium iodide (PI)-containing FACS staining medium in order to analying binding activities of the antibodies. The analysis was made using the FACS Calibur (Becton Dickinson).
The concentrations of antibodies were prepared at 1, 0.1, and 0.01 μg/ml, and flow cytometry was carried out using FM3A-hMpl cells. The experiment was carried out in accordance with the method described in Example 4. […]

[3] = target: T1, human thrombopoietin receptor (human …); experiment: cell-based or functional assay; remark: listed apart in the source

Binder | UT7/TPO (Max) [1] [%] | further results
B1 | > 50 | –
B2 | > 90 | –
B3 | – | binding result [2]: binds
B4 | – | agonistic activity relative to the original 7-10G4344uhm [3]: ~0.1 fold of the original level; binding activity relative to the original 7-10G4344uhm [2]: ~0.1 fold of the original level
B5 | > 80 | –
B6 | > 80 | –
